Literature values, collected in publication PMC2766628.
pKd: −log10 of the molar value.

Molecular target: PEP 3BP1 element (UniProt Q9Y2R2)
UniProt Q9Y2R2, sequence (Q9Y2R2 605-629): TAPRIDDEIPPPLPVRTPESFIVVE

- pKd: 6.10
Substance: Csk SH3 (from UniProt P41240)
